# B1: ATL_0006178 (antibody, IgG1, V domains shown)
# VH: QVQLQESGPGLVKPSETLSLTCTVSGGSISSYFWSWIRQPPGKGLEWIGYIHYSGTTNQNPSLKSRVTISVDKSKNQFSLKLSSVTAADTAVYYCARGRGMATLPFDYWGQGTLVTVSS
# VL: not shown
# notes: Combination variant of ATL_5262 (T82K, Q67 kept, N58Y); also called ATL_6178; ATL6178
# Key:
# [1] = target: T1, UNC5C recombinant human antigen, Fc-tagged (R&D Systems, #1005-UN) (human, UniProt O95185 41-380, limits assumed); test: ELISA, antigen down
# T1 construct: Bought protein; also called rhUNC5C; not shown: Fc tag of the bought protein
# [2] = target: T2, full-length human UNC5D on fixed HEK293 cells (Retrogenix panel) (human, UniProt Q6UXZ4 33-953); test: Retrogenix cell microarray, fixed HEK293 cells
# T2 construct: whole, on cells
# T2 sequence (looked up): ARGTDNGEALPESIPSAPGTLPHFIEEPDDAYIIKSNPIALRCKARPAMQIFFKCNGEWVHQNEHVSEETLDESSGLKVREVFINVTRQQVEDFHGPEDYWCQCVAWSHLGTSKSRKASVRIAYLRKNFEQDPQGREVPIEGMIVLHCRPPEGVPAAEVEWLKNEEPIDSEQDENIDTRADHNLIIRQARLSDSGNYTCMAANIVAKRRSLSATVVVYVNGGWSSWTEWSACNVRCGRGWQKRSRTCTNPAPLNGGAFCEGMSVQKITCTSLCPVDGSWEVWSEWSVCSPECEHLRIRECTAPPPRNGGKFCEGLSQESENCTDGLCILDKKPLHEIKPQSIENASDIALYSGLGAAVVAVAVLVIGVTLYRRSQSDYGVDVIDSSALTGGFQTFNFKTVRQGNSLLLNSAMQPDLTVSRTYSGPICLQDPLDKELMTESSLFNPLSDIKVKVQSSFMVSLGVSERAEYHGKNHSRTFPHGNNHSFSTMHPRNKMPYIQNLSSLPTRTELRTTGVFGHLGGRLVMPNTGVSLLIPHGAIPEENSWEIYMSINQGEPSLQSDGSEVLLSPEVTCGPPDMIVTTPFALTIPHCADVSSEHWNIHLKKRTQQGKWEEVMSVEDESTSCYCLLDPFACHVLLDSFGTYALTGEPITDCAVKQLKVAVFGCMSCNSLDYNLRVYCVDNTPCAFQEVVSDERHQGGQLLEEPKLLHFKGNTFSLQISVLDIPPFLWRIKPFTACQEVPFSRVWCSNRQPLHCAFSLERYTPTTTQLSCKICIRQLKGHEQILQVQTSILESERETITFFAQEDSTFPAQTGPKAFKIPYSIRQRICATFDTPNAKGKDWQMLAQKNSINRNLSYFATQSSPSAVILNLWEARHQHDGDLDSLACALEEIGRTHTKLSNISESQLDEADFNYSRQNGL
# [3] = target: T3, full-length human DCC on fixed HEK293 cells (Retrogenix panel) (human, UniProt P43146 26-1447); test: Retrogenix cell microarray, fixed HEK293 cells
# T3 construct: whole, on cells
# [4] = target: T4, Human recombinant UNC5A (BLI antigen) (Human, UniProt Q6ZN44 26-306); test: BLI, antigen captured by His tag, antibody as analyte
# T4 construct: Captured by His tag; also called UNC5A ectodomain
# Source text: (§1) Antigen was loaded as ligand and dipped into antibody as analyte during association, and assay buffer during dissociation.
# (§2) Purified recombinant antigens were purchased from a commercial supplier or prepared and purified in-house and details are shown in Table 2.
# [5] = target: T5, Human recombinant UNC5B (BLI antigen) (Human, UniProt Q8IZJ1 27-377); test: as above
# T5 construct: also called UNC5B ectodomain
# Source text: as §1, §2
# [6] = target: T6, Human recombinant UNC5D (BLI antigen) (Human, UniProt Q6UXZ4 33-379); test: as above
# T6 construct: also called UNC5D ectodomain
# Source text: as §1, §2
# [7] = target: T7, Human Neogenin (R&D Systems catalogue number 8607-NE; BLI antigen) (Human, UniProt Q92859 34-1105); test: as above
# T7 construct: extracellular domain; Bought protein; also called neogenin-1 ectodomain; NEO1
# T7 sequence (looked up): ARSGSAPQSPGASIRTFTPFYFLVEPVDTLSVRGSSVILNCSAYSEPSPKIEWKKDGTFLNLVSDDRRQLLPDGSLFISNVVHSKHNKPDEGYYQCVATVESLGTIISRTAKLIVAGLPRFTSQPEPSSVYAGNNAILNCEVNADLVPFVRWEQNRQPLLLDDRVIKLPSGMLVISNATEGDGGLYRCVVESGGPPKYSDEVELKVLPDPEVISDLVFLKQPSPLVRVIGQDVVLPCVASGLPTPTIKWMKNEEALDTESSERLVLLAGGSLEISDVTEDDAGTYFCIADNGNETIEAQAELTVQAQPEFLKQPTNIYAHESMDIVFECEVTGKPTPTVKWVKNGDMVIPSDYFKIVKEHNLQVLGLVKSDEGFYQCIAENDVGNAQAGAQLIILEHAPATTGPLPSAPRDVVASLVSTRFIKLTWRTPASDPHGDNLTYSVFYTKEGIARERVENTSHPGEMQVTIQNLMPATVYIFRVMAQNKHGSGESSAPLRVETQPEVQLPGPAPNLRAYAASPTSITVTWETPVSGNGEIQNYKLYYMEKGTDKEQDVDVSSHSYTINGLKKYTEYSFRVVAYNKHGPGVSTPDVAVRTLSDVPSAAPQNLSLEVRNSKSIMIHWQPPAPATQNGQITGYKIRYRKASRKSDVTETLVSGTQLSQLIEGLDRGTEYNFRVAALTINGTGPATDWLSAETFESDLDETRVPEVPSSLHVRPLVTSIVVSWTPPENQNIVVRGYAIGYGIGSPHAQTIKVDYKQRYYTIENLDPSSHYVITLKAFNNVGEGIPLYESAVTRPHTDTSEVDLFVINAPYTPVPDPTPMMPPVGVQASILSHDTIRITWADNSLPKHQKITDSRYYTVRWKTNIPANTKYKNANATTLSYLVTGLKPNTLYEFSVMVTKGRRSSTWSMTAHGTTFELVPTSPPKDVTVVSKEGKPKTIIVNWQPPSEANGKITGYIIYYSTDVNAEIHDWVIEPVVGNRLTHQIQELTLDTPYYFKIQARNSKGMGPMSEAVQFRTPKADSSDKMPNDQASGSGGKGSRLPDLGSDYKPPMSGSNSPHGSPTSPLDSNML
# Source text: as §1, §2
# [8] = target: T8, Human recombinant DCC (BLI antigen) (Human, UniProt P43146 26-1097); test: as above
# T8 construct: also called Netrin receptor DCC ectodomain
# Source text: as §1, §2
# T8 sequence (P43146 other isoform, or with tags, fused parts or gaps): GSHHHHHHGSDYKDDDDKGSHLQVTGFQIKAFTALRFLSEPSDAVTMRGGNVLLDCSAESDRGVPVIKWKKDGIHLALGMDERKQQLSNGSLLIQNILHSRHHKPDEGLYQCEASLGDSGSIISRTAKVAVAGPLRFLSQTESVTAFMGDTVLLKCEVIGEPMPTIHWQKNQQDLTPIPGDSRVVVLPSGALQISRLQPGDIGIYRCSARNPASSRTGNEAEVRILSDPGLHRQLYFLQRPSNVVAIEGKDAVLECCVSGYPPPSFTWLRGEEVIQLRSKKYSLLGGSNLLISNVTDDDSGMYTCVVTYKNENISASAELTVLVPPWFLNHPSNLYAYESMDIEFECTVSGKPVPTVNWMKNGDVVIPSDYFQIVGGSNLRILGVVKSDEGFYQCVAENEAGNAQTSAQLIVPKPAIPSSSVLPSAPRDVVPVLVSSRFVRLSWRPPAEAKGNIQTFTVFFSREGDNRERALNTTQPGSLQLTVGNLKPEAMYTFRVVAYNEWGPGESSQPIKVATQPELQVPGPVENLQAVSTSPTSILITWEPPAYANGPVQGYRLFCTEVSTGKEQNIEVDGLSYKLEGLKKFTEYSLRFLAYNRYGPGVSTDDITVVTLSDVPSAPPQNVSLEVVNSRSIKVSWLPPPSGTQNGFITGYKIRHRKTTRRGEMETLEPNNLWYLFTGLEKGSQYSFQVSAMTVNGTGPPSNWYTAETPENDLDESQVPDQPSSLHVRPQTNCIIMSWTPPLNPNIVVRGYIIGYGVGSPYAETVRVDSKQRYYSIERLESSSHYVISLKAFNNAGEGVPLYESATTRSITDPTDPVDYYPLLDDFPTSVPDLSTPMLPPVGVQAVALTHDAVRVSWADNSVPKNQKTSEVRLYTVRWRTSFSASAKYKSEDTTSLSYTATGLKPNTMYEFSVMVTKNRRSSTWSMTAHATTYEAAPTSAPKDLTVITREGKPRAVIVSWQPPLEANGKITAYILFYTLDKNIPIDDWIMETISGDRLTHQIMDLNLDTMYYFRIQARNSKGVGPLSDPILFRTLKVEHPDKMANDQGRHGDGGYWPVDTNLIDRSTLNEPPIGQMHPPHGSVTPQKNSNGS
# T4 sequence (Q6ZN44 other isoform, or with tags, fused parts or gaps): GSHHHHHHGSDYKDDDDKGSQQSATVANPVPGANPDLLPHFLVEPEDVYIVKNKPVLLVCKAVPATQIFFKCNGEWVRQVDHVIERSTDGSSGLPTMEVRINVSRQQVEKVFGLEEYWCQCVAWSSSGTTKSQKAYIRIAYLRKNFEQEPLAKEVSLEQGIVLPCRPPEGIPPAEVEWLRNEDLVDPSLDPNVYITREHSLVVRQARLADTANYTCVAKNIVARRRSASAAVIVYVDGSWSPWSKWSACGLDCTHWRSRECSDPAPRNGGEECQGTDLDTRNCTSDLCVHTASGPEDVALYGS
# T6 sequence (Q6UXZ4 other isoform, or with tags, fused parts or gaps): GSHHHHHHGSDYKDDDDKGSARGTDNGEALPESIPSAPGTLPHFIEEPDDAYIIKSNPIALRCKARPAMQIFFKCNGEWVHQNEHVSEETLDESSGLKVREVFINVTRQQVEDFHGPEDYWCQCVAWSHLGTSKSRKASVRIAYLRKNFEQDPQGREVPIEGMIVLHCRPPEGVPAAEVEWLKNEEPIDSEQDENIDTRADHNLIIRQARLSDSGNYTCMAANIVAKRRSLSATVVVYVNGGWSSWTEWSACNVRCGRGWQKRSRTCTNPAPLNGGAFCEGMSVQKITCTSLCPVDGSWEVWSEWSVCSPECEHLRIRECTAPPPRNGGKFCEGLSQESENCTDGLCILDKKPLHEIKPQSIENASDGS
# T1 sequence (O95185 41-380 limits assumed): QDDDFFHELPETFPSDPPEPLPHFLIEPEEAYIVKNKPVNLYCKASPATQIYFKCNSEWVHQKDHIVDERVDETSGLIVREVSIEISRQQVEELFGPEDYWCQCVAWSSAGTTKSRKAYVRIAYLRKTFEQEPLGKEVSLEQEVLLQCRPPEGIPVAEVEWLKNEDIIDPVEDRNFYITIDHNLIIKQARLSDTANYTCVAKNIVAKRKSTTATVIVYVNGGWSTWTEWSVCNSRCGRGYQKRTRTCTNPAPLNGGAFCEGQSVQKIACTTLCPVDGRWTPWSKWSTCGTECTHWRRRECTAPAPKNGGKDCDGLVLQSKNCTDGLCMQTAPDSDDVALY
# T3 sequence (P43146 26-1447): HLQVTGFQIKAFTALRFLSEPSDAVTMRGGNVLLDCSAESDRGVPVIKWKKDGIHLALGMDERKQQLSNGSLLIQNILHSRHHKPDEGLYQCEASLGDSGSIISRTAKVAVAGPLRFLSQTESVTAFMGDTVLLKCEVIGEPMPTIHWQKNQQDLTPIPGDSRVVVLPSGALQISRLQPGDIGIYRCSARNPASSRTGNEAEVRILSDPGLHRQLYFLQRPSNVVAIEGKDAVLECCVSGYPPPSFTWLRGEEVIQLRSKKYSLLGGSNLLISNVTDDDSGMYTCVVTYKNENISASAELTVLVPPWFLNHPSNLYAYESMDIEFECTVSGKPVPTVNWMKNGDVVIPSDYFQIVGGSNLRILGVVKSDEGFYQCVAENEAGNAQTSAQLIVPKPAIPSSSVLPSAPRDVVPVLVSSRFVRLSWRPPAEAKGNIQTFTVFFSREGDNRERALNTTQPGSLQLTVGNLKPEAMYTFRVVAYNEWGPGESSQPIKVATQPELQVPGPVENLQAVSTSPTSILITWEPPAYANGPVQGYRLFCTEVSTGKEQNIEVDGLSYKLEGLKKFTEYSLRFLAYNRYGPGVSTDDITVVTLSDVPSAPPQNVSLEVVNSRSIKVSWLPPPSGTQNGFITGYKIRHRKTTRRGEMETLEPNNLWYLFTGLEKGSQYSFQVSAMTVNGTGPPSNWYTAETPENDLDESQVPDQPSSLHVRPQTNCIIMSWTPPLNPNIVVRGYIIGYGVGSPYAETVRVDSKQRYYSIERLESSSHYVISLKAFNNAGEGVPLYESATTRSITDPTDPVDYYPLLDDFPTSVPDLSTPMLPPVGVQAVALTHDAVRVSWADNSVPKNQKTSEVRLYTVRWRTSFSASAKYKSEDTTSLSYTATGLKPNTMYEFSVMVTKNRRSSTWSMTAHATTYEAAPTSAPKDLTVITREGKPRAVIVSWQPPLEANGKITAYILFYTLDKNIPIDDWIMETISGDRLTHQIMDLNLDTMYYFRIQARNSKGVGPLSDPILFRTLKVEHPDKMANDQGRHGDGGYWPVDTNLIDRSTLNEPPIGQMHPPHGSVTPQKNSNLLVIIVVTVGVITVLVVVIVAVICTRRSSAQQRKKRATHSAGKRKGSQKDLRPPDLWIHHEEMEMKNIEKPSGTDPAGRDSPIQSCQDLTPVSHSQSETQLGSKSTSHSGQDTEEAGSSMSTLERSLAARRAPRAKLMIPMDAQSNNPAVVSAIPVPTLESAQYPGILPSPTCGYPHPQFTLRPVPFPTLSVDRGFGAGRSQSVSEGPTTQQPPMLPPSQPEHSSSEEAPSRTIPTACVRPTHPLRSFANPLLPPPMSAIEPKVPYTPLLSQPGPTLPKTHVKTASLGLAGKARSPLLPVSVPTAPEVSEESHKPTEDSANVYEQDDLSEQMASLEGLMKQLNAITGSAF
binder,measurement,setting,value
B1,EC50,[1],8 nM
same,binding result,[2],no binding
same,binding result,[3],no binding
same,binding result,[4],no binding (tested: up to 100 nM)
same,binding result,[5],no binding (tested: up to 100 nM)
same,binding result,[6],no binding (tested: up to 100 nM)
same,binding result,[7],no binding (tested: up to 100 nM)
same,binding result,[8],no binding (tested: up to 100 nM)

# From patent US20240228604A1 (ALCHEMAB THERAPEUTICS, published 2024)
